Experimental data from patent US20200199241A1 (Chugai, published 2020).
Read-outs that look alike come from different tables or passages of the source.

B1: antibody with mPM1H-mIgG1 heavy chain and L(WT)-CK light chain (antibody)
heavy: DVQLQESGPVLVKPSQSLSLTCTVTGYSITSDHAWSWIRQFPGNKLEWMGYISYSGITTYNPSLKSRISITRDTSKNQFFLQLNSVTTGDTSTYYCARSLARTTAMDYWGQGTSVTVSSAKTTPPSVYPLAPGSAAQTNSMVTLGCLVKGYFPEPVTVTWNSGSLSSGVHTFPAVLQSDLYTLSSSVTVPSSTWPSETVTCNVAHPASSTKVDKKIVPRDCGCKPCICTVPEVSSVFIFPPKPKDVLTITLTPKVTCVVVDISKDDPEVQFSWFVDDVEVHTAQTQPREEQFNSTFRSVSELPIMHQDWLNGKEFKCRVNSAAFPAPIEKTISKTKGRPKAPQVYTIPPPKEQMAKDKVSLTCMITDFFPEDITVEWQWNGQPAENYKNTQPIMDTDGSYFVYSKLNVQKSNWEAGNTFTCSVLHEGLHNHHTEKSLSHSPGK
light: not shown
notes: mouse IgG1 heavy chain with natural mouse Fc region; also called mPM1-mIgG1; copies: 2 + 2
B2: antibody with mPM1H-mIgG1-mF39 heavy chain (antibody)
heavy: DVQLQESGPVLVKPSQSLSLTCTVTGYSITSDHAWSWIRQFPGNKLEWMGYISYSGITTYNPSLKSRISITRDTSKNQFFLQLNSVTTGDTSTYYCARSLARTTAMDYWGQGTSVTVSSAKTTPPSVYPLAPGSAAQTNSMVTLGCLVKGYFPEPVTVTWNSGSLSSGVHTFPAVLQSDLYTLSSSVTVPSSTWPSETVTCNVAHPASSTKVDKKIVPRDCGCKPCICTVKEVSKVFIFPPKPKDVLYITLEPKVTCVVVDISKDDPEVQFSWFVDDVEVHTAQTQPREEQFNSTFRSVSELPIMHQDWLNGKEFKCRVNSAAFPAPIEKTISKTKGRPKAPQVYTIPPPKEQMAKDKVSLTCMITDFFPEDITVEWQWNGQPAENYKNTQPIMDTDGSYFVYSKLNVQKSNWEAGNTFTCSVLHEGLKNHHTEKSLSHSPGK
light: not shown
notes: P235K/S239K/T252Y/T256E/H433K; also called mPM1-mIgG1-mF39; copies: 2 + 2
B3: antibody with mPM1H-mIgG1-mF38 heavy chain (antibody)
heavy: DVQLQESGPVLVKPSQSLSLTCTVTGYSITSDHAWSWIRQFPGNKLEWMGYISYSGITTYNPSLKSRISITRDTSKNQFFLQLNSVTTGDTSTYYCARSLARTTAMDYWGQGTSVTVSSAKTTPPSVYPLAPGSAAQTNSMVTLGCLVKGYFPEPVTVTWNSGSLSSGVHTFPAVLQSDLYTLSSSVTVPSSTWPSETVTCNVAHPASSTKVDKKIVPRDCGCKPCICTVPEVSSVFIFPPKPKDVLYITLEPKVTCVVVDISKDDPEVQFSWFVDDVEVHTAQTQPREEQFNSTFRSVSELPIMHQDWLNGKEFKCRVNSAAFPAPIEKTISKTKGRPKAPQVYTIPPPKEQMAKDKVSLTCMITDFFPEDITVEWQWNGQPAENYKNTQPIMDTDGSYFVYSKLNVQKSNWEAGNTFTCSVLHEGLHWHHTEKSLSHSPGK
light: not shown
notes: T252Y/T256E/N434W; also called mPM1-mIgG1-mF38; copies: 2 + 2
B4: antibody with mPM1H-mIgG1-mF14 heavy chain (antibody)
heavy: DVQLQESGPVLVKPSQSLSLTCTVTGYSITSDHAWSWIRQFPGNKLEWMGYISYSGITTYNPSLKSRISITRDTSKNQFFLQLNSVTTGDTSTYYCARSLARTTAMDYWGQGTSVTVSSAKTTPPSVYPLAPGSAAQTNSMVTLGCLVKGYFPEPVTVTWNSGSLSSGVHTFPAVLQSDLYTLSSSVTVPSSTWPSETVTCNVAHPASSTKVDKKIVPRDCGCKPCICTVPEVSSVFIFPPKPKDVLYITLEPKVTCVVVDISKDDPEVQFSWFVDDVEVHTAQTQPREEQFNSTFRSVSELPIMHQDWLNGKEFKCRVNSAAFPAPIEKTISKTKGRPKAPQVYTIPPPKEQMAKDKVSLTCMITDFFPEDITVEWQWNGQPAENYKNTQPIMDTDGSYFVYSKLNVQKSNWEAGNTFTCSVLHEGLKNHHTEKSLSHSPGK
light: not shown
notes: T252Y/T256E/H433K; also called mPM1-mIgG1-mF14; copies: 2 + 2
B5: antibody with VH3-IgG1-F890 heavy chain and L(WT)-CK light chain (antibody)
heavy: QVQLQESGPGLVKPSETLSLTCAVSGHSISHDHAWSWVRQPPGEGLEWIGFISYSGITNYNPSLQGRVTISRDNSKNTLYLQMNSLRAEDTAVYYCARSLARTTAMDYWGEGTLVTVSSASTKGPSVFPLAPSSKSTSGGTAALGCLVKDYFPEPVTVSWNSGALTSGVHTFPAVLQSSGLYSLSSVVTVPSSSLGTQTYICNVNHKPSNTKVDKKVEPKSCDKTHTCPPCPAPELLGGPSVFLFPPKPKDTLYISRTPEVTCVVVDVSHEDPEVKFNWYVDGVEVHNAKTKPREEQYNSTYRVVSVLTVLHQDWLNGKEYKCKVSNKALPAPIEKTISKAKGQPREPQVYTLPPSRDELTKNQVSLTCLVKGFYPSDIAVEWESNGQPENNYKTTPPVLDSDGSFFLYSKLTVDKSRWQQGNVFSCSVMHEALHYHVTQKSLSLSP
light: not shown
notes: M252Y/N434Y/Y436V; copies: 2 + 2
B6: antibody with VH3-IgG1-F939 heavy chain and L(WT)-CK light chain (antibody)
heavy: QVQLQESGPGLVKPSETLSLTCAVSGHSISHDHAWSWVRQPPGEGLEWIGFISYSGITNYNPSLQGRVTISRDNSKNTLYLQMNSLRAEDTAVYYCARSLARTTAMDYWGEGTLVTVSSASTKGPSVFPLAPSSKSTSGGTAALGCLVKDYFPEPVTVSWNSGALTSGVHTFPAVLQSSGLYSLSSVVTVPSSSLGTQTYICNVNHKPSNTKVDKKVEPKSCDKTHTCPPCPAPELRGGPKVFLFPPKPKDTLYISRTPEVTCVVVDVSHEDPEVKFNWYVDGVEVHNAKTKPREEQYNSTYRVVSVLTVLHQDWLNGKEYKCKVSNKALPAPIEKTISKAKGQPREPQVYTLPPSRDELTKNQVSLTCLVKGFYPSDIAVEWESNGQPENNYKTTPPVLDSDGSFFLYSKLTVDKSRWQQGNVFSCSVMHEALHYHVTQKSLSLSP
light: not shown
notes: L235R/S239K/M252Y/N434Y/Y436V; copies: 2 + 2

Experiments:
mouse FcγRIV [1] = biological target: T1, mouse FcγRIV (mouse, UniProt A0A0B4J1G0 21-203); assay: SPR, antibody captured by Protein L, mouse FcγR as analyte, pH 7.4, 25 C
T1 construct: bought; also called mFcgRIV; mFcgR IV; the vendor's purification tag not given
T1 sequence: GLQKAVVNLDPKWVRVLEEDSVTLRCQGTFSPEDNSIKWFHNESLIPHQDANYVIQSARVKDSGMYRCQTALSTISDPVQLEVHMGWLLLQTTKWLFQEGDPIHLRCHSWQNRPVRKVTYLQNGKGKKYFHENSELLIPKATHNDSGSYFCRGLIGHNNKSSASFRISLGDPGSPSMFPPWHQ

mouse FcγRIIb [2] = biological target: T2, mouse FcγRIIb (mouse, UniProt P08101 30-207, limits assumed); assay: as above
T2 construct: bought; also called mFcgRIIb; mFcgR IIb
T2 sequence (looked up): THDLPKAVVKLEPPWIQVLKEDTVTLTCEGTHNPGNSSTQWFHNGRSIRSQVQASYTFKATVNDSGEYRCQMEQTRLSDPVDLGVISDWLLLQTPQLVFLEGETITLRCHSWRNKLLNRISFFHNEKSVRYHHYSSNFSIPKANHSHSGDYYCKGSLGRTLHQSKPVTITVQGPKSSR

mouse FcγRIII [3] = biological target: T3, mouse FcγRIII (mouse, UniProt P08508 31-215); assay: as above
T3 construct: bought; also called mFcgRIII; mFcgR III
T3 sequence (looked up): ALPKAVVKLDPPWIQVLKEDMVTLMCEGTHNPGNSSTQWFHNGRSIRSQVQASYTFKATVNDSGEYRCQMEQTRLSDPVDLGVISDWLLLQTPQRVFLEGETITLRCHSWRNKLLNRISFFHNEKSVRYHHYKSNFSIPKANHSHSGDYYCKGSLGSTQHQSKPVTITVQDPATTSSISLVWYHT

mouse FcγRI [4] = biological target: T4, mouse FcγRI (mouse, UniProt P26151 25-297); assay: as above
T4 construct: bought; also called mFcgRI; mFcgR 1
T4 sequence (looked up): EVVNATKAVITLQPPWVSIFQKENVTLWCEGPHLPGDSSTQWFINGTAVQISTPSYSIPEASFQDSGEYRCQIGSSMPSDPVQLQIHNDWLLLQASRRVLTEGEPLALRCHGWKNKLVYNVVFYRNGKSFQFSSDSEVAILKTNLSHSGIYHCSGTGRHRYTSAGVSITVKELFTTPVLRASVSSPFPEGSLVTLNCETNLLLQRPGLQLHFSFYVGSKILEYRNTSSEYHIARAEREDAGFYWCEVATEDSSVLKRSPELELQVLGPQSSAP

[5] = biological target: T5, human FcRn (soluble human FcRn complexed with β2-microglobulin) (human, UniProt P61769 21-119, limits assumed); assay: SPR, antibody captured by Protein L, human FcRn as analyte, pH 7.0, 25 C
T5 construct: also called hFcRn
T5 sequence (chain, as listed by the source limits assumed, chain 1 of 2): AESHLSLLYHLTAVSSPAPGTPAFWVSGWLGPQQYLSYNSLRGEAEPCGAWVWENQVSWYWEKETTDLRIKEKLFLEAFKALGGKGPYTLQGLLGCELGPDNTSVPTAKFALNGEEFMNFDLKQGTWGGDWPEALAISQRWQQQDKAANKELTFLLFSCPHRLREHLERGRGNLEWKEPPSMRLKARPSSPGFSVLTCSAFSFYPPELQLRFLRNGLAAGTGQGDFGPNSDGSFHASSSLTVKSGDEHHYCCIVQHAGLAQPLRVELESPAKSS
T5 sequence (P61769 21-119 limits assumed, chain 2 of 2): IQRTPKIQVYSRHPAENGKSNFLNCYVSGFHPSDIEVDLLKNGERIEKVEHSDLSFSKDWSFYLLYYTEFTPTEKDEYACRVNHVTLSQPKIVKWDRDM

human FcγRIIIa(V) = biological target: T6, human FcγRIIIa(V) (human, UniProt P08637 17-208, limits assumed); assay: SPR, antibody captured by Protein L, human FcγR as analyte, pH 7.4, 25 C;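 note: biacore T100 or T200 with Protein L amine-coupled on a CM4 chip, FcγRs diluted in ACES saline with polysorbate 20, buffer-only injection as blank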
T6 construct: also called hFcgRIIIa(V); allotype V158
T6 sequence (P08637 other isoform, or with tags, fused parts or gaps limits assumed): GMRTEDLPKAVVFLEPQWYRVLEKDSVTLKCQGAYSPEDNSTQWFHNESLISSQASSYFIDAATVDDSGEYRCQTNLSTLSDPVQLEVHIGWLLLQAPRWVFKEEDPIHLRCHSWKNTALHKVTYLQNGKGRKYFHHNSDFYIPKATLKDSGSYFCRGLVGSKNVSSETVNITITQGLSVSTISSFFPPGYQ

human FcγRIIa(R) = biological target: T7, human FcγRIIa(R) (human, UniProt P12318 36-217); assay: as above
T7 construct: also called hFcgRIIa(R); FcγRIIa type R
T7 chain: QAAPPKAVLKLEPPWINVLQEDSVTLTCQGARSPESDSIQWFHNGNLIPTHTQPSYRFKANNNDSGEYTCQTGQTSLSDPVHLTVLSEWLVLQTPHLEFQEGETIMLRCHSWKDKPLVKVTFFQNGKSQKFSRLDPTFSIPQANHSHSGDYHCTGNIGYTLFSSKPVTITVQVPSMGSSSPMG

human FcγRIa = biological target: T8, human FcγRIa (human, UniProt P12314 16-292, limits assumed); assay: as above
T8 construct: also called hFcgRIa; hFcgRI
T8 sequence (P12314 16-292 limits assumed): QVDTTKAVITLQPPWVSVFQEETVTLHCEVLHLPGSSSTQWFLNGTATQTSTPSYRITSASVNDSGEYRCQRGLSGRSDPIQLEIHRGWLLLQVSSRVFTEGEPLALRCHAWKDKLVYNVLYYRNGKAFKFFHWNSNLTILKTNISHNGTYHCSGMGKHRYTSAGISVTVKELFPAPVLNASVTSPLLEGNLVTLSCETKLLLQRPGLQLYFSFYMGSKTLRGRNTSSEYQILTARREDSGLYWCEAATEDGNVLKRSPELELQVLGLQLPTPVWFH

human FcγRIIa(H) = biological target: T9, human FcγRIIa(H) (human, UniProt P12318 36-217); assay: as above
T9 construct: also called hFcgRIIa(H); FcγRIIa type H
T9 sequence: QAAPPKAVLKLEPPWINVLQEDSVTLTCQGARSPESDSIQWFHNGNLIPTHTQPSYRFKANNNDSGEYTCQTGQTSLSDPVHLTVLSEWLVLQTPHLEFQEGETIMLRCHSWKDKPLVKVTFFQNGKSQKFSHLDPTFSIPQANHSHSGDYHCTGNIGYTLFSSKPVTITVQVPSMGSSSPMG

human FcγRIIb = biological target: T10, human FcγRIIb (human, UniProt P31994 43-217, limits assumed); assay: as above
T10 construct: also called hFcgRIIb; FcγIIB
T10 sequence: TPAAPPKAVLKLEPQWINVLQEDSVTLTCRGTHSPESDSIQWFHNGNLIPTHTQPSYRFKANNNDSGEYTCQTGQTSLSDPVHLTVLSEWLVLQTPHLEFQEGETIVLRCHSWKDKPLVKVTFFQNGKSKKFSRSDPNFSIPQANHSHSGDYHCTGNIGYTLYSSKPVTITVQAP

mouse FcγRIV [6] = biological target: T1, mouse FcγRIV; assay: SPR, antibody captured by Protein L, mouse FcγR as analyte, pH 7.4, 25 C; remark: listed apart in the source
mouse FcγRIIb [7] = biological target: T2, mouse FcγRIIb; assay: as above; remark: listed apart in the source
mouse FcγRIII [8] = biological target: T3, mouse FcγRIII; assay: as above; remark: listed apart in the source
mouse FcγRI [9] = biological target: T4, mouse FcγRI; assay: as above; remark: listed apart in the source

Row | Binder | BINDING AMOUNT (RU) (mouse FcγRIV [1]) | BINDING AMOUNT (RU) (mouse FcγRIIb [2]) | BINDING AMOUNT (RU) (mouse FcγRIII [3]) | BINDING AMOUNT (RU) (mouse FcγRI [4]) | Kd [5] | BINDING AMOUNT (RU) (human FcγRIIIa(V)) | BINDING AMOUNT (RU) (human FcγRIIa(R)) | BINDING AMOUNT (RU) (human FcγRIa) | BINDING AMOUNT (RU) (human FcγRIIa(H)) | BINDING AMOUNT (RU) (human FcγRIIb) | BINDING AMOUNT (RU) (mouse FcγRIV [6]) | BINDING AMOUNT (RU) (mouse FcγRIIb [7]) | BINDING AMOUNT (RU) (mouse FcγRIII [8]) | BINDING AMOUNT (RU) (mouse FcγRI [9])
1 | B1 | -3.5 RU | 202 RU | 450 RU | -2 RU |  |  |  |  |  |  |  |  |  | 
2 | B2 | -3.8 RU | -3 RU | -8.4 RU | -3.1 RU |  |  |  |  |  |  |  |  |  | 
3 | B3 | -4.1 RU | 161 RU | 403 RU | -2 RU |  |  |  |  |  |  |  |  |  | 
4 | B4 | -8 RU | 184 RU | 447 RU | -3.7 RU |  |  |  |  |  |  |  |  |  | 
5 | B5 |  |  |  |  | 110 nM | 180 RU | 128 RU | 363 RU | 117 RU | 54.1 RU | 230 RU | 69.3 RU | 284 RU | 268 RU
6 | B6 |  |  |  |  | 150 nM | -0.75 RU | -0.8 RU | -2.37 RU | -0.9 RU | -0.2 RU | -7.3 RU | -6.3 RU | -24.9 RU | -2 RU
